# Results: US9650419B2, “Biocompatible protein, biocompatible protein gel and biocompatible conducting protein gel comprising the protein and method for preparing the same” (Research & Business Foundation SUNGKYUNKWAN UNIVERSITY, priority 2014, dated 2017)
# Target: T1, trypsin (Bos taurus, UniProt P00760)
# T1 construct: gene PRSS1
# T1 sequence (P00760 24-246): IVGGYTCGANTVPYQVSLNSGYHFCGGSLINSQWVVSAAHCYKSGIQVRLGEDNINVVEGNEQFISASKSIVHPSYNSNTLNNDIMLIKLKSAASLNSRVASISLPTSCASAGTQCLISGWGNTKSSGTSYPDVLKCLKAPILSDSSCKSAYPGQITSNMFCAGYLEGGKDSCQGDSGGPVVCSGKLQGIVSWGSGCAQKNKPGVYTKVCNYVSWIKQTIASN
# Test: proteolytic susceptibility with trypsin (HPLC, MALDI-TOF)
# Assay type: in vitro ADME
# Conditions: 100 μM peptide stock, 200 μM protease stock, TBS buffer pH 7.5, one, seven, thirty days at room temperature
# Experimental: In order to confirm whether β-peptide is degraded by a protease, proteolytic susceptibility of β-VhexS was measured with trypsin, chymotrypsin, and subtilisin which cleave protein nonspecifically. Peptide and pretease stock solution was prepared by desolving 100 μM of beta-VhexS and 200 μM of each pretease in TBS buffer at pH 7.5. 10 μL of stock solution. 40 μL of peptide stock solution and 10 μL of protease stock solution were transferred into micro tube and incubated for one, seven, thirty days at room temperature. The reaction was quenched with adding 100 μL of 1% TFA solution. As a control sample, 40 μL of peptide stock solution without protease was also treated with 1% TFA solution.
# Degree of peptide degradation was analyzed with high performance liquid chromatography using C3 column for Agilent analysis. […] The HPLC peaks of both standard sample and enzyme treated peptide sample were compared, and the peaks appeared only for enzyme treated sample were analyzed with MALDI-TOF. The results confirmed that β-peptide was not degraded by enzymes.
substance,measurement,value
"Ac-KVK EVF FVK EVF FVK EVY-NH2 (Ac-KVKEVFFVKEVFFVKEVY-NH2; also: beta-amino acids, places not given here) [β-peptide]",degradation of peptide by protease,not degraded
